Experimental data: paper PMC4757822, “Structural and biochemical characterization of an RNA/DNA binding motif in the N-terminal domain of RecQ4 helicases”

How the values were obtained:
hZnK (RecQ4 Zn knuckle) [1] = molecular target: T1, hZnK (RecQ4 Zn knuckle) (human, UniProt O94761 394-427); experiment: EMSA; conditions: 20 mM Tris-HCl pH 7.5, 2 mM MgCl2, 50 mM NaCl, 5% glycerol, 1 mM DTT, 5 mM ZnCl2, 0.1 mg/ml BSA, 10 nM probe, 30 min room temperature; 6% native gel in TBE at …
T1 chain: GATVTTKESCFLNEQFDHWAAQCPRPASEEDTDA

[2] = molecular target: T2, hUpZnK (upstream Sld2-like region + Zn knuckle) (human) (UniProt O94761); experiment: EMSA; conditions: 20 mM Tris-HCl pH 7.5, 2 mM MgCl2, 50 mM NaCl, 5% glycerol, 1 mM DTT, 5 mM ZnCl2, 0.1 mg/ml BSA, 10 nM probe, 30 min room temperature; 6% native gel in TBE at …
T2 sequence: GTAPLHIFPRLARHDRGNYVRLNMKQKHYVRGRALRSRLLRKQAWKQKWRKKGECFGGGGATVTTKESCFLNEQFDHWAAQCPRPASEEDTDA

[3] = system: xUpZnK (upstream Sld2-like region + Zn knuckle) (Xenopus laevis); experiment: EMSA; conditions: 20 mM Tris-HCl pH 7.5, 2 mM MgCl2, 50 mM NaCl, 5% glycerol, 1 mM DTT, 5 mM ZnCl2, 0.1 mg/ml BSA, 10 nM probe, 30 min room temperature; 6% native gel in TBE at …
[4] = molecular target: T3, hUpZnK (upstream Sld2-like region + Zn knuckle) (human, UniProt O94761 335-427); experiment: EMSA; 20 mM Tris-HCl pH 7.5, 2 mM MgCl2, 50 mM NaCl, 5% glycerol, 1 mM DTT, 5 mM ZnCl2, 0.1 mg/ml BSA, 10 nM probe, 30 min room temperature; 6% native gel in TBE at 4 C; conditions: protein: recombinant; tags: N-terminal 6His-GST (not cleaved); label: 5'-32P on one strand; blunt
T3 sequence: T2 sequence

hZnK (RecQ4 Zn knuckle) [5] = molecular target: T1, hZnK (RecQ4 Zn knuckle); experiment: as above; conditions: protein: recombinant; tags: N-terminal 6His-GST (not cleaved); label: 5'-32P on one strand; blunt
[6] = molecular target: T3, hUpZnK (upstream Sld2-like region + Zn …); experiment: EMSA; 5 mM ZnCl2, 2 mM Mg2+; 20 mM Tris-HCl pH 7.5, 2 mM MgCl2, 50 mM NaCl, 5% glycerol, 1 mM DTT, 5 mM ZnCl2, 0.1 mg/ml BSA, 10 nM probe, 30 min room temperature; 6% native gel in TBE at 4 C; conditions: protein: recombinant, tags: N-terminal 6His-GST (not cleaved), label: 5'-32P on one strand, fork
hZnK (RecQ4 Zn knuckle) [7] = molecular target: T1, hZnK (RecQ4 Zn knuckle); experiment: as above; conditions: protein: recombinant, tags: N-terminal 6His-GST (not cleaved), label: 5'-32P on one strand, fork
[8] = 22 bp plus 15 nt unpaired U arms (3' arm of A3, 5' arm of A4)
[9] = 22 bp plus 15 nt unpaired T arms (3' arm of A1, 5' arm of A2)

## ssRNA
hZnK (RecQ4 Zn knuckle) [1]
  Kd: 220 nM
[2]
  Kd: 11 nM
[3]
  Kd: 7.3 nM

## GTAGTGCATGTACACCACACTCTTTTTTTTTTTTTTT / TTTTTTTTTTTTTTTGAGTGTGGTGTACATGCACTAC [forkDNA (A1+A2)]
[3]
  Kd: 14 nM

## ssDNA
hZnK (RecQ4 Zn knuckle) [1]
  Kd: 500 nM
[2]
  Kd: 185 nM
[3]
  Kd: 25 nM

## GUAGUGCAUGUACACCACACUCUUUUUUUUUUUUUUU / UUUUUUUUUUUUUUUGAGUGUGGUGUACAUGCACUAC [forkRNA (A3+A4)]
[3]
  Kd: 5.4 nM

B1: 22 bp dsDNA (annealed region of fork) (dsDNA)
DNA 1: GTAGTGCATGTACACCACACTC
DNA 2: GAGTGTGGTGTACATGCACTAC
[4]
  binding result: no binding
hZnK (RecQ4 Zn knuckle) [5]
  binding result: no binding

B2: forkRNA (A3+A4) (dsRNA)
RNA 1: GUAGUGCAUGUACACCACACUCUUUUUUUUUUUUUUU
RNA 2: UUUUUUUUUUUUUUUGAGUGUGGUGUACAUGCACUAC
[6]; [8]
  Kd: 13 ± 1.1 nM
hZnK (RecQ4 Zn knuckle) [7]; [8]
  Kd: ~130 nM

B3: forkDNA (A1+A2) (dsDNA)
DNA 1: GTAGTGCATGTACACCACACTCTTTTTTTTTTTTTTT
DNA 2: TTTTTTTTTTTTTTTGAGTGTGGTGTACATGCACTAC
[6]; [9]
  Kd: 42 ± 2.8 nM
hZnK (RecQ4 Zn knuckle) [7]; [9]
  Kd: ~270 nM
